First the molecules themselves.
B1: Coronatine-insensitive protein 1 (Arabidopsis thaliana (Mouse-ear cress)), O04197 (parent)
chain: MEDPDIKRCKLSCVATVDDVIEQVMTYITDPKDRDSASLVCRRWFKIDSETREHVTMALCYTATPDRLSRRFPNLRSLKLKGKPRAAMFNLIPENWGGYVTPWVTEISNNLRQLKSVHFRRMIVSDLDLDRLAKARADDLETLKLDKCSGFTTDGLLSIVTHCRKIKTLLMEESSFSEKDGKWLHELAQHNTSLEVLNFYMTEFAKISPKDLETIARNCRSLVSVKVGDFEILELVGFFKAAANLEEFCGGSLNEDIGMPEKYMNLVFPRKLCRLGLSYMGPNEMPILFPFAAQIRKLDLLYALLETEDHCTLIQKCPNLEVLETRNVIGDRGLEVLAQYCKQLKRLRIERGADEQGMEDEEGLVSQRGLIALAQGCQELEYMAVYVSDITNESLESIGTYLKNLCDFRLVLLDREERITDLPLDNGVRSLLIGCKKLRRFAFYLRQGGLTDLGLSYIGQYSPNVRWMLLGYVGESDEGLMEFSRGCPNLQKLEMRGCCFSERAIAAAVTKLPSLRYLWVQGYRASMTGQDLMQMARPYWNIELIPSRRVPEVNQQGEIREMEHPAHILAYYSLAGQRTDCPTTVRVLKEPI

The first assay covers variants of B1. To be noted: with skp1a_arath SKP1A.
Turning to MEDPDIKRCKLSCVATVDDVIAQVMTYITDPKDRDSASLVCRRWFKIDSETREHVTMALCYTATPDRLSRRFPNLRSLKLKGKPRAAMFNLIPENWGGYVTPWVTEISNNLRQLKSVHFRRMIVSDLDLDRLAKARADDLETLKLDKCSGFTTDGLLSIVTHCRKIKTLLMEESSFSEKDGKWLHELAQHNTSLEVLNFYMTEFAKISPKDLETIARNCRSLVSVKVGDFEILELVGFFKAAANLEEFCGGSLNEDIGMPEKYMNLVFPRKLCRLGLSYMGPNEMPILFPFAAQIRKLDLLYALLETEDHCTLIQKCPNLEVLETRNVIGDRGLEVLAQYCKQLKRLRIERGADEQGMEDEEGLVSQRGLIALAQGCQELEYMAVYVSDITNESLESIGTYLKNLCDFRLVLLDREERITDLPLDNGVRSLLIGCKKLRRFAFYLRQGGLTDLGLSYIGQYSPNVRWMLLGYVGESDEGLMEFSRGCPNLQKLEMRGCCFSERAIAAAVTKLPSLRYLWVQGYRASMTGQDLMQMARPYWNIELIPSRRVPEVNQQGEIREMEHPAHILAYYSLAGQRTDCPTTVRVLKEPI [E22A], the “effect of a mutation on the interaction” value is “decreasing interaction”.

The variants in a further assay derive from B1. To be noted: with skp1b_arath SKP1B.
MEDPDIKRCKLSCVATVDDVIAQVMTYITDPKDRDSASLVCRRWFKIDSETREHVTMALCYTATPDRLSRRFPNLRSLKLKGKPRAAMFNLIPENWGGYVTPWVTEISNNLRQLKSVHFRRMIVSDLDLDRLAKARADDLETLKLDKCSGFTTDGLLSIVTHCRKIKTLLMEESSFSEKDGKWLHELAQHNTSLEVLNFYMTEFAKISPKDLETIARNCRSLVSVKVGDFEILELVGFFKAAANLEEFCGGSLNEDIGMPEKYMNLVFPRKLCRLGLSYMGPNEMPILFPFAAQIRKLDLLYALLETEDHCTLIQKCPNLEVLETRNVIGDRGLEVLAQYCKQLKRLRIERGADEQGMEDEEGLVSQRGLIALAQGCQELEYMAVYVSDITNESLESIGTYLKNLCDFRLVLLDREERITDLPLDNGVRSLLIGCKKLRRFAFYLRQGGLTDLGLSYIGQYSPNVRWMLLGYVGESDEGLMEFSRGCPNLQKLEMRGCCFSERAIAAAVTKLPSLRYLWVQGYRASMTGQDLMQMARPYWNIELIPSRRVPEVNQQGEIREMEHPAHILAYYSLAGQRTDCPTTVRVLKEPI [E22A]: the “effect of a mutation on the interaction” value is recorded as “decreasing interaction”.

A further assay covers variants of B1. To be noted: with cul1_arath CUL1, Q94AH6.
Sequence of cul1_arath CUL1, Q94AH6 (Q94AH6 whole entry): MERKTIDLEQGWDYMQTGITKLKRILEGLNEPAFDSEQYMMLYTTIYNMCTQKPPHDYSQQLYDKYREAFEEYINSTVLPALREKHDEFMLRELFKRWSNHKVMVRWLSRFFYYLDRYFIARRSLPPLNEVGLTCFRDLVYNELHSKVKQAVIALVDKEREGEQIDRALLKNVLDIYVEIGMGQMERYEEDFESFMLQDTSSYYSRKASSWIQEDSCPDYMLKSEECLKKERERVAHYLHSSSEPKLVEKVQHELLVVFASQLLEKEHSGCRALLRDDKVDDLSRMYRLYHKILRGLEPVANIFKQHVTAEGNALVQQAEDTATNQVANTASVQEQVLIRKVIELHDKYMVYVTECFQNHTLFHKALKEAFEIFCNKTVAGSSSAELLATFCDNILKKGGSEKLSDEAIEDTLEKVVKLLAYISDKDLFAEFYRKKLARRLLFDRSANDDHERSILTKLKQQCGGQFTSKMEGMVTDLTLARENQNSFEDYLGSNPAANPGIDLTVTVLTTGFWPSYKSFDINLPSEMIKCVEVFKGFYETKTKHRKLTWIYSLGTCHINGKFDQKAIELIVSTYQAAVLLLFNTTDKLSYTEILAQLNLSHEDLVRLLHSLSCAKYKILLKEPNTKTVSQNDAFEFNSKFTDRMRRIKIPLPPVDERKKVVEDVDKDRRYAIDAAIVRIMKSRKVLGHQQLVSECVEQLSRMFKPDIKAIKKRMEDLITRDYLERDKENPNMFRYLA
With MEDPDIKRCKLSCVATVDDVIAQVMTYITDPKDRDSASLVCRRWFKIDSETREHVTMALCYTATPDRLSRRFPNLRSLKLKGKPRAAMFNLIPENWGGYVTPWVTEISNNLRQLKSVHFRRMIVSDLDLDRLAKARADDLETLKLDKCSGFTTDGLLSIVTHCRKIKTLLMEESSFSEKDGKWLHELAQHNTSLEVLNFYMTEFAKISPKDLETIARNCRSLVSVKVGDFEILELVGFFKAAANLEEFCGGSLNEDIGMPEKYMNLVFPRKLCRLGLSYMGPNEMPILFPFAAQIRKLDLLYALLETEDHCTLIQKCPNLEVLETRNVIGDRGLEVLAQYCKQLKRLRIERGADEQGMEDEEGLVSQRGLIALAQGCQELEYMAVYVSDITNESLESIGTYLKNLCDFRLVLLDREERITDLPLDNGVRSLLIGCKKLRRFAFYLRQGGLTDLGLSYIGQYSPNVRWMLLGYVGESDEGLMEFSRGCPNLQKLEMRGCCFSERAIAAAVTKLPSLRYLWVQGYRASMTGQDLMQMARPYWNIELIPSRRVPEVNQQGEIREMEHPAHILAYYSLAGQRTDCPTTVRVLKEPI [E22A], the “effect of a mutation on the interaction” value is reported as “decreasing interaction”.

For the origin of these results see IntAct's records for PubMed 12172031.
